The results in this text go back to PMC8453484.

The target of test [1] is HECT domain of HUWE1 (residues 3993-4374), wild type (human) (UniProt Q7Z6Z7). As to the kind of experiment: covalent labelling with an activity-based probe (SDS-PAGE, Coomassie); 10 μM E3 and 100 μM Ub-Prg in 50 mM HEPES, 100 mM NaCl, pH 8.0 at 30 °C, quenched with SDS loading dye; only the covalent (vinyl thioether) product is seen.
Test [2] deals with HECT domain of NEDD4-1 (514-900) (UniProt P46934). The test is described as above.
Chain of UniProt P46934 (P46934 933-1319): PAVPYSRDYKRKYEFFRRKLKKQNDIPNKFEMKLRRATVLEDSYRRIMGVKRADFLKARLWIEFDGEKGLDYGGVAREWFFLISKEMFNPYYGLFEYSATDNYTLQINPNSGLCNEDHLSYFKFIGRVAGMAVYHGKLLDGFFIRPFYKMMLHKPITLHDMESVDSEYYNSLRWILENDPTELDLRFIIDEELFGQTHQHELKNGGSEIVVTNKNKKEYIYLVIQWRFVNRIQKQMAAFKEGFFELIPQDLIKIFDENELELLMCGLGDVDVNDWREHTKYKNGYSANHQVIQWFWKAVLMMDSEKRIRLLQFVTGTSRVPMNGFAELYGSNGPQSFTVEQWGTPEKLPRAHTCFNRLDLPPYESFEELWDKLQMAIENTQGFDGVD

Chain of UniProt Q7Z6Z7 (Q7Z6Z7 3993-4374): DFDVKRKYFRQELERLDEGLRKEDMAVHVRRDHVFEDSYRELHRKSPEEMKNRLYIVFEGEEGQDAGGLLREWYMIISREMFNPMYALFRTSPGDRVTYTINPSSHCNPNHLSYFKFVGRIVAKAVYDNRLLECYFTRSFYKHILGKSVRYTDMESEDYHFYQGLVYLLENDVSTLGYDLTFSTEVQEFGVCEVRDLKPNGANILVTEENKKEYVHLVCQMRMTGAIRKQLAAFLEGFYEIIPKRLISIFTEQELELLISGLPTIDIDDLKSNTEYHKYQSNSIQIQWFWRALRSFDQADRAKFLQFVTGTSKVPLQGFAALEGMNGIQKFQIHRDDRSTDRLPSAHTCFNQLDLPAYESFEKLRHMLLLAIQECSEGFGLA

In general, stoichiometry N refers to a count of units in the complex or per binding partner. With ubiquitin-propargylamine, the stoichiometry N in test [1] and in test [2] was 1 throughout.
